Test results: patent publication US20200368361A1 (Regeneron, published 2020)

B1: H1H21234N-N297Q (antibody, V domains shown)
VH: QVQLQESGPGLVKPSETLSLTCTVTGGSISRNYWSWIRQPPGKGLEWIGYIYYSGSIDYNPSLKSRVTISVDTSKNQFSLKLSSMTAADTAVYYCARDRWNWKYGMDVWGQGTTVIVSS
VL: EIVLTQSPGTLSLSPGERATLSCRASQTVRNNYLAWYHQKPGQAPRLLIYGASSRATGIPDRFSGSGSGTDFTLTISRLEPEDFTVYYCHQYGNSPWTFGQGTKMEIKR
notes: human IgG1 Fc with N297Q point mutation
B2: H1H27732P-N297Q (antibody, V domains shown)
VH: QLQLQESGPGLVKPSETLSLTCTVSGGSISSSTYYWGWIRQPPGKGLEWIGSFYYSGSTYYNPSLKSRVTISVGTSKNQFSLKLSSVTAADTAVYFCARGGLLGRPFVIWGQGTMVTVSS
VL: DIQMTQSPSSLSASVGDRVTITCRASQGIRNDLGWYQQKPGKAPKRLIYAASSLQSGVPSRFSGSGSGTEFTLTISSLQPEDFATYYCLQHNSYPLTFGGGTKVEIKR
notes: as for B1
B3: H1H27754P-N297Q (antibody, V domains shown)
VH: EVQLVESGGGLVQPGGSLRLSCAASGFTFRTYAMTWVRQAPGKGLDWVSAITGDGGNTYYADSVKGRFTISRDNSKNTLYLQMNSLRAEDTAIYYCAKDQRFSFALYYFDYWGQGTLVTVSS
VL: DIQMTQSPSSVSASVGDRVTITCRASQGISSWLAWYQQKPGNAPKLLIYAAFSLQSGVPSRFSGSGSGTDFTLTISSLQPEDFATYYCQQANNFPWTFGQGTKVEIKR
notes: as for B1
B4: H1H27756P-N297Q (antibody, V domains shown)
VH: QVQLVESGGGVVQPGRSLRLSCAASGFTFSNYDMHWVRQAPGKGLEWMAVISYDGINKYYADSVKGRFTISRDNSKNTLYLQMNSLRAEDTAVYYCAKGTYSWYFDLWGRGTLVTVSS
VL: not shown
notes: as for B1
B5: H1H27760P-N297Q (antibody, V domains shown)
VH: EVQLVESGGGLVQPGRSLRLSCAASGFTFDAYAMHWVRQAPGKGLEWVSGISWNSGSIGYADSVKGRFTISRDNAKNSLYLQMNSLREEDTALYYCAKDKILELYYYGMDVWGQGTTVTVSS
VL: not shown
notes: human IgG1 Fc with N297Q point mutation; also called H1H27760P2-N297Q; H1H27760P2
B6: H1H27759P-N297Q (antibody, V domains shown)
VH: EVQLVESGGGFVQPGGSLRLSCAASGFTFSSYAMSWVRQAPGKGLEWVSAISGTGSNTYYADSVKGRFTISRDNSKNTLYLQMNSLRAEDTAVYYCAKDRVTTVTYYFDYWGQGTLVTVSS
VL: not shown
notes: human IgG1 Fc with N297Q point mutation; also called H1H27759P2-N297Q; H1xH27759P2
B7: H1H27761P-N297Q (antibody, V domains shown)
VH: EVQLVESGGDLVQPGGSLRLSCSASGFTFNIYAMSWVRQAPGKGLEWVSGISGSGGSTYYADSVKGRFTISRDNSKNTLYFQMNSLRVEDTAVYYCAKKISSSSYYYYAMDVWGQGTTVTVSS
VL: not shown
notes: human IgG1 Fc with N297Q point mutation; also called H1H27761P2-N297Q; H1H27761P2
B8: H1H27762P-N297Q (antibody, V domains shown)
VH: QVQLVQSGAEVKKPGSSVKVSCKASGGTFSRYDISWVRQAPGQGLEWMGGIIPIFGTSNYAQKFQGRVTITTDESTSTVYMELSSLRSEDTAVYYCARGGRYGWFDPWGQGTLVTVSS
VL: not shown
notes: human IgG1 Fc with N297Q point mutation; also called H1H27762P2-N297Q; H1H27762P2
B9: H1H27766P-N297Q (antibody, V domains shown)
VH: EVQLVESGGGLVQPGGSLRLSCAASGFTFSSFAMSWVRQAPGKELEWVSSISGRGGSTYYADSVRGRFTISRDNSKITLYLQMNSLRAEDTAVYYCAKDIVFRYTSSAYWYFDLWGRGTLVTVSS
VL: not shown
notes: human IgG1 Fc with N297Q point mutation; also called H1H27766P2-N297Q; H1H27766P2

Columns and labels:
[1] = molecular target: T1, human MSR1 extracellular domain expressed with a N-terminal nonahistidine tag (His9-hMSR1); R&D Systems, Cat … (human, UniProt P21757 77-451); assay: SPR Biacore, 25C, mAb captured by anti-human Fc, MSR1 as analyte; calculated from kd fixed at 1.00E-05
T1 construct: extracellular domain; Bought protein; also called His-hMSR1
T1 sequence: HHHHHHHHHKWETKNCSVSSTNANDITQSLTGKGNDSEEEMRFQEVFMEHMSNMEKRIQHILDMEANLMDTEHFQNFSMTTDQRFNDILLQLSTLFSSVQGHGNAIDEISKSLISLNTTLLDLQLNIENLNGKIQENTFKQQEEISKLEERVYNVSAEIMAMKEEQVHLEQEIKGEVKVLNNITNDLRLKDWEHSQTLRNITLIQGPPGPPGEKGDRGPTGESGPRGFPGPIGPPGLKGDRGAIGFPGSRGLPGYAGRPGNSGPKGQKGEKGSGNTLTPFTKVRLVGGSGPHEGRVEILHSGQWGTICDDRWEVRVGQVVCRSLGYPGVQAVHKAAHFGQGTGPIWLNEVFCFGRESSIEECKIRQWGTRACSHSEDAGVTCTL
Procedure: (§1) Binding affinities and kinetic constants of human anti-MSR1 antibodies for different MSR1 reagents were determined by real-time surface plasmon resonance (Biacore 4000). All binding studies were performed in 10 mM HEPES, 150 mM NaCl, 3 mM EDTA, and 0.05% v/v Surfactant Tween-20, pH 7.4 (HBS-ET) running buffer at 25° C. and 37° C.
(§2) The association rate (kₐ) and dissociation rate (kd) were determined by fitting the real-time binding sensorgrams to a 1:1 binding model with mass transport limitation using Scrubber 2.0 c curve-fitting software.

[2] = molecular target: T2, monkey MSR1 extracellular domain expressed with a N-terminal hexahistidine-myc-myc tag (HMM-mfMSR1) (monkey (Macaca fascicularis)); assay: SPR Biacore, 25C, mAb captured by anti-human Fc, MSR1 as analyte;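 also: Half-life of complex dissociation derived from kinetic rates, obtained by fitting Biacore 4000 sensorgrams to a 1:1 model including mass transport, run in HBS-ET buffer at pH 7.4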
T2 chain: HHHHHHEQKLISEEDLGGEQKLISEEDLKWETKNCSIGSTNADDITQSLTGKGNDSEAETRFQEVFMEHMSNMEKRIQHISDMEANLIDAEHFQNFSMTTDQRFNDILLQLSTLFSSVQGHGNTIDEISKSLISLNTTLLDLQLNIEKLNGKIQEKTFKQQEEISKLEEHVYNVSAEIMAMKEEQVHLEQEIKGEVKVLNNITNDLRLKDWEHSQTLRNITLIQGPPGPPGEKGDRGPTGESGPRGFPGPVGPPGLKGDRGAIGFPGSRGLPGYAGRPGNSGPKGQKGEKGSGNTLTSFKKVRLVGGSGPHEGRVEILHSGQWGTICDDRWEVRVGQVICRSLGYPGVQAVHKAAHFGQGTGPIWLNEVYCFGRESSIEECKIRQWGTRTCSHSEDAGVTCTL
Procedure: as §1, §2

[3] = molecular target: T1, human MSR1 extracellular domain …; assay: as above
Procedure: as §1, §2

Row | Binder | t½ [1] [min] | t½ [2] [min] | t½ [3] [min]
1 | B1 | 1160 | 593 | 
2 | B2 | 1160 | 364 | 
3 | B3 | 1160 | 657 | 
4 | B4 |  | 5 | 94
5 | B5 |  | 16 | 13
6 | B6 |  | 13 | 9
7 | B7 |  | 19 | 23
8 | B8 |  | 6 | 6
9 | B9 |  | 145 | 620
